pEC50: −log10 of the molar value.
What was measured:
[1] = molecular target: mouse C-C Motif Chemokine Receptor 8 (mCCR8) (mouse) (UniProt P56484); experiment: flow cytometry on mouse thymic CD4+ cells
[2] = molecular target: mouse C-C Motif Chemokine Receptor 8 (mCCR8) (mouse) (UniProt P56484); experiment: flow cytometry on activated mouse splenic CD4+ cells
[3] = molecular target: mouse C-C Motif Chemokine Receptor 8 (mCCR8) (mouse) (UniProt P56484); experiment: flow cytometry on mCCR8-expressing CHO cells
[4] = molecular target: mouse C-C Motif Chemokine Receptor 8 (mCCR8) (mouse) (UniProt P56484); experiment: cell-based or functional assay

mouse C-C Motif Chemokine Receptor 8 (mCCR8) (mouse), sequence (P56484 whole entry): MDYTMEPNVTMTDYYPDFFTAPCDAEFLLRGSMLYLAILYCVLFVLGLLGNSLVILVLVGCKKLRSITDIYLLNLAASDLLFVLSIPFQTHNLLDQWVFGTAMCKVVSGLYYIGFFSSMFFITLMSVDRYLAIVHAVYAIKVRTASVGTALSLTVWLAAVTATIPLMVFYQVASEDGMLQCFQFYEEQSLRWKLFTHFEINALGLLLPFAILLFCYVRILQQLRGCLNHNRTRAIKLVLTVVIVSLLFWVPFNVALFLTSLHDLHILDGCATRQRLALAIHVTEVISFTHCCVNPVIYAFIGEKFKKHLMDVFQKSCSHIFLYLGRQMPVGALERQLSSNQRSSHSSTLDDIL

Work on “anti-CCR8-mIgG2a, mouse IgG2a isotype of rat anti-mCCR8 mAb Clone SA214G2 (BioLegend) (antibody)” yielded a pEC50 [1] of 8.40, a pEC50 [2] of 8.21 and a pEC50 [3] of 8.19. It also gave an EC50, crosslinking of mouse FcgRIV+ luciferase reporter effector cells [4] of 6.34 nM and an IC50, blockade of Ca flux on mCCR8-expressing CHO cells [4] of 19.3 nM.

From patent US20230119066A1
